Columns and labels:
[1] = target: ES-62 (Acanthocheilonema viteae); test: SEC; HPLC on a G4000SW column in HBSC buffer (1 mM CaCl2); ES-62 injected, with or without CRP at 20 ug/ml in the column buffer, or with EDTA
[2] = target: Biotinylated C-reactive protein (human) (UniProt P02741); test: SPR; Biacore 3000; biotinylated CRP or SAP captured to 200 RU on streptavidin on a CM5 chip; ES-62 flowed at 30 ul/min in HBS pH 7.4 with 1 mM CaCl2 and 0.005% P20; regeneration with 3 mM EDTA; ka and kd calculated separately
Biotinylated C-reactive protein (human), sequence (P02741 19-224): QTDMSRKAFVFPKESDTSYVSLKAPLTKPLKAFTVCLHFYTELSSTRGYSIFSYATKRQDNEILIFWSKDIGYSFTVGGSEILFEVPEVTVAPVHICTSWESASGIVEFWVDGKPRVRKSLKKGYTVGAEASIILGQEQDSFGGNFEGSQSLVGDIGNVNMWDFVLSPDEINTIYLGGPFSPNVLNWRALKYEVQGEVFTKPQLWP

Substance ES-62 (natural protein) has a stoichiometry N [1] of 4, a koff [2] of 0.0013 to 0.0014 s⁻¹ and a kon [2] of 100000 to 1e+06 M⁻¹ s⁻¹.

Source: paper PMC4882459
